Laboratory results taken from US20250188130A1.

Target: E glycoprotein of DENV2-FL-Mature (fusion loop N103S and G106L), on virus (Dengue virus serotype 2, strain S16803 (engineered)) (UniProt P18356)
Assay: cell-based or functional assay

1M7 (antibody) showed a neutralization (FRNT, EC50) (logs (reduction against DENV2)) of 2.
